Data on 94 variants can be found in the supplement of paper PMC10567573.

The chains are these.
B1: SNAP91 (parent)
chain: FSTDAFSSPPQGASPVPESSLTAD
B2: RHOBTB3 (parent)
chain: GGADIIVIKYNVNDKFSFHEVKDN
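Further: lentivirally expressed fusions sorted by FACS into six bins by GFP to DsRed ratio, PSI derived from sequencing read proportions per bin multiplied by bin number.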

In one series the parent is B1. Briefly: protein stability index of a GFP-peptide fusion (GPS, HEK-293T) (PSI 1-6); higher = more stable. Conditions: c terminus: a fixed tail appended.
As for FSHDAFSSPPQGASPVPESSLTAD, the protein stability index was 5.4.

As for FSEDAFSSPPQGASPVPESSLTAD, the protein stability index came out at 5.08. The same measure, in the same setting: for FSVDAFSSPPQGASPVPESSLTAD the value was 4.56; for FSADAFSSPPQGASPVPESSLTAD, 5.12.

For FSWDAFSSPPQGASPVPESSLTAD, the protein stability index was found to be 4.38. For the variant FSPDAFSSPPQGASPVPESSLTAD, the protein stability index stood at 4.49. For the variant FSCDAFSSPPQGASPVPESSLTAD, the protein stability index amounted to 4.3.

For FSLDAFSSPPQGASPVPESSLTAD, the protein stability index turned out to be 4.93. Same read-out and setting: to FSGDAFSSPPQGASPVPESSLTAD belongs 4.47. Same read-out and setting: for FSDDAFSSPPQGASPVPESSLTAD the value was 5.08; for FSTDAYSSPPQGASPVPESSLTAD, 3.26. In the case of FSTDAESSPPQGASPVPESSLTAD, the protein stability index stood at 5.69.

FSTDATSSPPQGASPVPESSLTAD: the protein stability index is 5.61. Still for that read-out and setting: to FSTDAISSPPQGASPVPESSLTAD belongs 5.43; to FSTDAQSSPPQGASPVPESSLTAD, 5.63. On the same count and under the same terms, for FSTDAHSSPPQGASPVPESSLTAD the value was 5.62; for FSTDAGSSPPQGASPVPESSLTAD, 5.48.

Take FSTDACSSPPQGASPVPESSLTAD: the protein stability index came to 5.09.

Turning to FSTDADSSPPQGASPVPESSLTAD, the protein stability index was determined as 5.44. On the same count and under the same terms, for FSTDARSSPPQGASPVPESSLTAD the value was 5.49. The same measure, in the same setting: for FSTDANSSPPQGASPVPESSLTAD the value was 5.31. Still for that read-out and setting: to FSTDASSSPPQGASPVPESSLTAD belongs 5.44; to FSTDAKSSPPQGASPVPESSLTAD, 5.38; to FSTDAPSSPPQGASPVPESSLTAD, 5.53.

As to FSTDAWSSPPQGASPVPESSLTAD, the protein stability index worked out at 1.86. On the same count and under the same terms, for FSTDAASSPPQGASPVPESSLTAD the value was 5.57. Same read-out and setting: to FSTDAMSSPPQGASPVPESSLTAD belongs 5.53. On the same count and under the same terms, to FSTDALSSPPQGASPVPESSLTAD belongs 5.55; to FSTDAVSSPPQGASPVPESSLTAD, 5.59.

Variants of B2 are the subject of a further series. The description is as above. Conditions: c terminus: a fixed tail appended.
For the variant GGADIIVIKYNVNDKFSFHEVKEN, the protein stability index is 2.68. Same read-out and setting: for GGADIIVIKYNVNDKFSFHEVKGN the value was 2.34. On the same count and under the same terms, to GGADIIVIKYNVNDKFSFHEVKLN belongs 3.42; to GGADIIVIKYNVNDKFSFHEVKHN, 3.28.

With GGADIIVIKYNVNDKFSFHEVKYN, the protein stability index worked out at 2.28. For the variant GGADIIVIKYNVNDKFSFHEVKQN, the protein stability index was determined as 2.76. The same measure, in the same setting: to GGADIIVIKYNVNDKFSFHEVKIN belongs 2.36; to GGADIIVIKYNVNDKFSFHEVKWN, 3.21; to GGADIIVIKYNVNDKFSFHEVKAN, 2.71. The same measure, in the same setting: to GGADIIVIKYNVNDKFSFHEVKTN belongs 4.21; to GGADIIVIKYNVNDKFSFHEVKVN, 2.83; to GGADIIVIKYNVNDKFSFHEVKNN, 2.44. The same measure, in the same setting: to GGADIIVIKYNVNDKFSFHEVKSN belongs 2.21; to GGADIIVIKYNVNDKFSFHEVKPN, 3.16. Consider GGADIIVIKYNVNDKFSFHEVKMN, for which the protein stability index was 2.02. On the same count and under the same terms, for GGADIIVIKYNVNDKFSFHEVKCN the value was 2.08. With GGADIIVIKYNVNDKFSFHERKDN, the protein stability index worked out at 2.42. On the same count and under the same terms, to GGADIIVIKYNVNDKFSFHEEKDN belongs 1.37. GGADIIVIKYNVNDKFSFHESKDN: the protein stability index amounted to 2.5. Still for that read-out and setting: for GGADIIVIKYNVNDKFSFHEPKDN the value was 2.01. Same read-out and setting: for GGADIIVIKYNVNDKFSFHEHKDN the value was 2.15. Same read-out and setting: to GGADIIVIKYNVNDKFSFHENKDN belongs 1.66; to GGADIIVIKYNVNDKFSFHEKKDN, 2.59; to GGADIIVIKYNVNDKFSFHEYKDN, 2.98. In the case of GGADIIVIKYNVNDKFSFHELKDN, the protein stability index came out at 2.72. On to GGADIIVIKYNVNDKFSFHETKDN, for which the protein stability index came to 1.46. Still for that read-out and setting: for GGADIIVIKYNVNDKFSFHEMKDN the value was 3.97; for GGADIIVIKYNVNDKFSFHEIKDN, 2.23. The same measure, in the same setting: to GGADIIVIKYNVNDKFSFHEFKDN belongs 3.01; to GGADIIVIKYNVNDKFSFHEQKDN, 2.29. On the same count and under the same terms, for GGADIIVIKYNVNDKFSFHEWKDN the value was 2.15; for GGADIIVIKYNVNDKFSFHEGKDN, 3.4. On to GGADIIVIKYNVNDKFSFHEVKDH, for which the protein stability index worked out at 2.14. The same measure, in the same setting: for GGADIIVIKYNVNDKFSFHEVKDA the value was 2.09; for GGADIIVIKYNVNDKFSFHEVKDV, 3.86; for GGADIIVIKYNVNDKFSFHEVKDG, 3. In the case of GGADIIVIKYNVNDKFSFHEVKDK, the protein stability index was 2.73. On the same count and under the same terms, to GGADIIVIKYNVNDKFSFHEVKDC belongs 2.34.

Consider GGADIIVIKYNVNDKFSFHEVKDL, for which the protein stability index turned out to be 3.07. The same measure, in the same setting: for GGADIIVIKYNVNDKFSFHEVKDT the value was 4.04. Still for that read-out and setting: for GGADIIVIKYNVNDKFSFHEVKDI the value was 2.21; for GGADIIVIKYNVNDKFSFHEVKDM, 3.25; for GGADIIVIKYNVNDKFSFHEVKDF, 3.49. As to GGADIIVIKYNVNDKFSFHEVKDS, the protein stability index amounted to 2.71. For GGADIIVIKYNVNDKFSFHEVKDE, the protein stability index came out at 1.44. Still for that read-out and setting: for GGADIIVIKYNVNDKFSFHEVKDD the value was 1.94. On the same count and under the same terms, to GGADIIVIKYNVNDKFSFHEVKDR belongs 1.86.

For GGADIIVIKYNVNDKFSFHEVHDN, the protein stability index came to 3.97. Same read-out and setting: to GGADIIVIKYNVNDKFSFHEVGDN belongs 2.76. Consider GGADIIVIKYNVNDKFSFHEVPDN, for which the protein stability index amounted to 3.07. As for GGADIIVIKYNVNDKFSFHEVDDN, the protein stability index turned out to be 2.36. As for GGADIIVIKYNVNDKFSFHEVVDN, the protein stability index was 3.25. Same read-out and setting: for GGADIIVIKYNVNDKFSFHEVEDN the value was 3.13. The same measure, in the same setting: for GGADIIVIKYNVNDKFSFHEVFDN the value was 4.16; for GGADIIVIKYNVNDKFSFHEVLDN, 2.43. The same measure, in the same setting: for GGADIIVIKYNVNDKFSFHEVNDN the value was 2.1. Consider GGADIIVIKYNVNDKFSFHEVSDN, for which the protein stability index turned out to be 2.52. On the same count and under the same terms, for GGADIIVIKYNVNDKFSFHEVADN the value was 2.89. Still for that read-out and setting: for GGADIIVIKYNVNDKFSFHEVTDN the value was 2.58; for GGADIIVIKYNVNDKFSFHEVWDN, 2.75; for GGADIIVIKYNVNDKFSFHEVQDN, 2.01. For GGADIIVIKYNVNDKFSFHEVMDN, the protein stability index amounted to 2.35. On the same count and under the same terms, to GGADIIVIKYNVNDKFSFHEVYDN belongs 3.11; to GGADIIVIKYNVNDKFSFHEVRDN, 2.61. Take GGADIIVIKYNVNDKFSFHEVCDN: the protein stability index stood at 2.88.
